Measured values reported in article PMC10397247.
Where two headings read alike, the source gives them in different places. One block for each binder: values may come before it.

Legend:
[1] = target: T1, 4H536-AA; experiment: two-hybrid library CCmax;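 also: natural log of median RNA to DNA barcode read ratio; higher means stronger binding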
T1 chain: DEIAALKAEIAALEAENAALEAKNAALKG

[2] = target: T2, 4H570-AA; experiment: two-hybrid library CCmax;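 also: natural log of median RNA to DNA barcode read ratio; higher means stronger binding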
T2 chain: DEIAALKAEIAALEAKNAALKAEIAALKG

[3] = target: T3, 4H629-AA; experiment: two-hybrid library CCmax;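 also: natural log of median RNA to DNA barcode read ratio; higher means stronger binding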
T3 chain: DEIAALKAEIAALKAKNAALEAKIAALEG

[4] = target: T4, 4H710-AA; experiment: two-hybrid library CCmax;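 also: natural log of median RNA to DNA barcode read ratio; higher means stronger binding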
T4 chain: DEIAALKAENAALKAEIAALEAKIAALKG

[5] = target: T5, 4H745-AA; experiment: two-hybrid library CCmax;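 also: natural log of median RNA to DNA barcode read ratio; higher means stronger binding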
T5 chain: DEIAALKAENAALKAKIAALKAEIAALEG

[6] = target: T6, 4H797-AA; experiment: two-hybrid library CCmax; conditions: mean of both orientations;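 also: natural log of median RNA to DNA barcode read ratio; higher means stronger binding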
T6 chain: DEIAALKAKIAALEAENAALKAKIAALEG

[7] = target: T7, 4H850-AA; experiment: two-hybrid library CCmax
T7 chain: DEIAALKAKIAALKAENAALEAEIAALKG

[8] = target: T8, 4H891-AA; experiment: two-hybrid library CCmax
T8 chain: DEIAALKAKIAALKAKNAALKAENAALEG

[9] = target: T9, 4H909-AA; experiment: two-hybrid library CCmax
T9 chain: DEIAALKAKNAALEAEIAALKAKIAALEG

[10] = target: T10, 4H930-AA; experiment: two-hybrid library CCmax
T10 chain: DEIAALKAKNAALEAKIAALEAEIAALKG

[11] = target: T11, 4H94-AA; experiment: two-hybrid library CCmax
T11 chain: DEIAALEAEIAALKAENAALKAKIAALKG

[12] = target: T12, 4H780-AA; experiment: two-hybrid library CCmax
T12 chain: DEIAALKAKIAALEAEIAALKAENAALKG

[13] = target: T13, 4H794-AA; experiment: two-hybrid library CCmax
T13 chain: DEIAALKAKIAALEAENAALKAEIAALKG

[14] = target: T14, 4H881-AA; experiment: two-hybrid library CCmax
T14 chain: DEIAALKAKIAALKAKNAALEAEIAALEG

[15] = target: T15, 4H906-AA; experiment: two-hybrid library CCmax
T15 chain: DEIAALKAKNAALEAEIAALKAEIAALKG

[16] = target: T16, 4H993-AA; experiment: two-hybrid library CCmax
T16 chain: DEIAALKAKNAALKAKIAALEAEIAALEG

[17] = target: T17, 4H566-AA; experiment: two-hybrid library CCmax
T17 chain: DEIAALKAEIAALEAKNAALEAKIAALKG

[18] = target: T18, 4H605-AA; experiment: two-hybrid library CCmax
T18 chain: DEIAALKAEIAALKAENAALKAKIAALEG

[19] = target: T19, 4H678-AA; experiment: two-hybrid library CCmax
T19 chain: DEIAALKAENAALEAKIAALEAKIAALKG

[20] = target: T20, 4H717-AA; experiment: two-hybrid library CCmax; conditions: mean of both orientations
T20 chain: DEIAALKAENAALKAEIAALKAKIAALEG

[21] = target: T21, 4H429-AA; experiment: two-hybrid library CCmax
T21 chain: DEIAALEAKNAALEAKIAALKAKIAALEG

[22] = target: T22, 4H454-AA; experiment: two-hybrid library CCmax; conditions: mean of both orientations
T22 chain: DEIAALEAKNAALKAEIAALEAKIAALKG

[23] = target: T23, 4H48-AA; experiment: two-hybrid library CCmax; conditions: mean of both orientations
T23 chain: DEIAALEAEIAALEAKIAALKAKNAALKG

[24] = target: T24, 4H971-AA; experiment: two-hybrid library CCmax
T24 chain: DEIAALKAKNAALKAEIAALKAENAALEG

[25] = target: T25, 4H458-AA; experiment: two-hybrid library CCmax
T25 chain: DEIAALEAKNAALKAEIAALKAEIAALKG

[26] = target: T26, 4H485-AA; experiment: two-hybrid library CCmax
T26 chain: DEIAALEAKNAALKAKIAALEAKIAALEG

[27] = target: T27, 4H906-bA; experiment: two-hybrid library CCNG1
T27 chain: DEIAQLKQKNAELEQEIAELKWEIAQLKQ

[28] = target: T28, 4H918-bN; experiment: two-hybrid library CCNG1
T28 chain: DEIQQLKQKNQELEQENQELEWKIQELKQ

[29] = target: T29, 4H967-bN; experiment: two-hybrid library CCNG1
T29 chain: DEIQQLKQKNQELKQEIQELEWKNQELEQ

[30] = target: T30, 4H63-AA; experiment: two-hybrid library CCmax
T30 chain: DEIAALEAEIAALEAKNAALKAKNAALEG

Binder: DEIAALKAEIAALEAKNAALKAEIAALKG [4H570-AA]
interaction score [2]: 1.51 | interaction score ([3]; mean of both orientations): -0.598 | interaction score ([4]; mean of both orientations): -1.47 | interaction score ([5]; mean of both orientations): -1.48 | interaction score [6]: 0.178 | interaction score ([7]; mean of both orientations): 1.66 | interaction score ([8]; mean of both orientations): -0.736 | interaction score ([9]; mean of both orientations): -1.22 | interaction score ([10]; mean of both orientations): -1.1 | interaction score ([11]; mean of both orientations): 1.71

Binder: DEIAALKAEIAALEAKNAALEAKIAALKG [4H566-AA]
interaction score [17]: 2.14 | interaction score ([18]; mean of both orientations): -0.184 | interaction score ([19]; mean of both orientations): -0.948 | interaction score [20]: -0.483 | interaction score ([12]; mean of both orientations): -2 | interaction score ([13]; mean of both orientations): -0.409 | interaction score ([14]; mean of both orientations): 1.95 | interaction score ([15]; mean of both orientations): -1.33 | interaction score ([16]; mean of both orientations): 1.6

Binder: DEIAALEAKNAALEAKIAALKAKIAALEG [4H429-AA]
interaction score [21]: 0.468 | interaction score [22]: 1.83 | interaction score [23]: -0.728 | interaction score ([17]; mean of both orientations): 0.0626 | interaction score [18]: -1.54 | interaction score ([19]; mean of both orientations): 1.26 | interaction score [20]: -0.775 | interaction score ([12]; mean of both orientations): -1.7 | interaction score ([13]; mean of both orientations): -0.809 | interaction score ([14]; mean of both orientations): -0.143 | interaction score ([15]; mean of both orientations): -0.239 | interaction score [16]: 1.92

Binder: DEIAALKAKIAALKAKNAALEAEIAALEG [4H881-AA]
interaction score [14]: -0.685 | interaction score ([15]; mean of both orientations): -1.49 | interaction score ([16]; mean of both orientations): 1.82

Binder: DEIAALEAEIAALKAENAALKAKIAALKG [4H94-AA]
interaction score [11]: 2.24

Binder: DEIAALKAKIAALEAENAALKAEIAALKG [4H794-AA]
interaction score [13]: 1.84 | interaction score ([14]; mean of both orientations): -0.532 | interaction score ([15]; mean of both orientations): -1.42 | interaction score ([16]; mean of both orientations): -1.99

Binder: DEIAALKAENAALEAKIAALEAKIAALKG [4H678-AA]
interaction score [19]: 1.57 | interaction score [20]: -0.0211 | interaction score ([12]; mean of both orientations): -1.59 | interaction score ([13]; mean of both orientations): -1.91 | interaction score ([14]; mean of both orientations): 1.21 | interaction score ([15]; mean of both orientations): -0.716 | interaction score ([16]; mean of both orientations): 1.05

Binder: DEIAALKAENAALKAEIAALEAKIAALKG [4H710-AA]
interaction score [4]: 0.809 | interaction score ([5]; mean of both orientations): 1.86 | interaction score [6]: -1.31 | interaction score ([7]; mean of both orientations): -1.15 | interaction score ([8]; mean of both orientations): -1.65 | interaction score ([9]; mean of both orientations): -0.464 | interaction score ([10]; mean of both orientations): -0.472 | interaction score ([11]; mean of both orientations): -0.285

Binder: DEIAALKAKIAALKAKNAALKAENAALEG [4H891-AA]
interaction score [8]: -1.96 | interaction score ([9]; mean of both orientations): -1.73 | interaction score ([10]; mean of both orientations): -1.86 | interaction score ([11]; mean of both orientations): -0.169

Binder: DEIAALKAKNAALEAKIAALEAEIAALKG [4H930-AA]
interaction score [10]: 1.74 | interaction score ([11]; mean of both orientations): -1.34

Binder: DEIAALEAKNAALKAKIAALEAKIAALEG [4H485-AA]
interaction score [26]: 1.06 | interaction score ([1]; mean of both orientations): -1.29 | interaction score ([2]; mean of both orientations): -1.69 | interaction score ([3]; mean of both orientations): -1.15 | interaction score ([4]; mean of both orientations): 1.71 | interaction score [5]: 1.2 | interaction score [6]: -0.968 | interaction score ([7]; mean of both orientations): 1.97 | interaction score ([8]; mean of both orientations): -2.05 | interaction score ([9]; mean of both orientations): -0.153 | interaction score ([10]; mean of both orientations): -0.103 | interaction score ([11]; mean of both orientations): -1.46

Further lines, results first:

interaction score [1]: 0.339 | interaction score ([2]; mean of both orientations): 1.1 | interaction score ([3]; mean of both orientations): 0.302 | interaction score ([4]; mean of both orientations): -1.44 | interaction score ([5]; mean of both orientations): -1.07 | interaction score [6]: -0.504 | interaction score ([7]; mean of both orientations): 1.35 | interaction score ([8]; mean of both orientations): 1.78 | interaction score ([9]; mean of both orientations): -1.61 | interaction score ([10]; mean of both orientations): -1.56 | interaction score ([11]; mean of both orientations): -0.957
Binder: DEIAALKAEIAALEAENAALEAKNAALKG [4H536-AA]

interaction score [12]: 1.68 | interaction score ([13]; mean of both orientations): -1.57 | interaction score ([14]; mean of both orientations): -1.27 | interaction score ([15]; mean of both orientations): -1.19 | interaction score ([16]; mean of both orientations): -1.51
Binder: DEIAALKAKIAALEAEIAALKAENAALKG [4H780-AA]

interaction score [15]: 1.74 | interaction score ([16]; mean of both orientations): -0.00106
Binder: DEIAALKAKNAALEAEIAALKAEIAALKG [4H906-AA]

interaction score [24]: -0.816
Binder: DEIAALKAKNAALKAEIAALKAENAALEG [4H971-AA]

interaction score [9]: 2.08 | interaction score ([10]; mean of both orientations): -1.17 | interaction score ([11]; mean of both orientations): -0.983
Binder: DEIAALKAKNAALEAEIAALKAKIAALEG [4H909-AA]

interaction score [6]: -1.44 | interaction score ([7]; mean of both orientations): -0.847 | interaction score ([8]; mean of both orientations): -1.51 | interaction score ([9]; mean of both orientations): -0.361 | interaction score ([10]; mean of both orientations): -0.807 | interaction score ([11]; mean of both orientations): -1.46
Binder: DEIAALKAENAALKAKIAALKAEIAALEG [4H745-AA]

interaction score [7]: 1.89 | interaction score ([8]; mean of both orientations): -0.0612 | interaction score ([9]; mean of both orientations): -1.47 | interaction score ([10]; mean of both orientations): -1.9 | interaction score ([11]; mean of both orientations): 1.79
Binder: DEIAALKAKIAALKAENAALEAEIAALKG [4H850-AA]

interaction score [25]: 1.87 | interaction score ([26]; mean of both orientations): -1.76 | interaction score ([1]; mean of both orientations): -1.46 | interaction score ([2]; mean of both orientations): -0.947 | interaction score [3]: -1.64 | interaction score ([4]; mean of both orientations): 1.06 | interaction score ([5]; mean of both orientations): 1.1 | interaction score [6]: -1.44 | interaction score ([7]; mean of both orientations): 1.08 | interaction score ([8]; mean of both orientations): -1.67 | interaction score ([9]; mean of both orientations): -0.173 | interaction score ([10]; mean of both orientations): -0.663 | interaction score ([11]; mean of both orientations): -1.35
Binder: DEIAALEAKNAALKAEIAALKAEIAALKG [4H458-AA]

interaction score [27]: 0.95 | interaction score [28]: -0.333
Binder: DEIAQLKQKNAELEQEIAELKWEIAQLKQ [4H906-bA]

interaction score [29]: -0.749
Binder: DEIQQLKQKNQELKQEIQELEWKNQELEQ [4H967-bN]

interaction score [3]: 1.86 | interaction score ([4]; mean of both orientations): -0.399 | interaction score ([5]; mean of both orientations): -1.44 | interaction score [6]: -1.05 | interaction score ([7]; mean of both orientations): -0.0456 | interaction score ([8]; mean of both orientations): -1.48 | interaction score ([9]; mean of both orientations): -1.56 | interaction score ([10]; mean of both orientations): -1.41 | interaction score ([11]; mean of both orientations): -0.298
Binder: DEIAALKAEIAALKAKNAALEAKIAALEG [4H629-AA]

interaction score [18]: 1.29 | interaction score ([19]; mean of both orientations): -0.274 | interaction score [20]: -1.23 | interaction score ([12]; mean of both orientations): -1.53 | interaction score ([13]; mean of both orientations): -0.923 | interaction score ([14]; mean of both orientations): -0.443 | interaction score ([15]; mean of both orientations): -1.14 | interaction score ([16]; mean of both orientations): -1.15
Binder: DEIAALKAEIAALKAENAALKAKIAALEG [4H605-AA]

interaction score [30]: -1.93
Binder: DEIAALEAEIAALEAKNAALKAKNAALEG [4H63-AA]

interaction score [16]: 1.19
Binder: DEIAALKAKNAALKAKIAALEAEIAALEG [4H993-AA]
